In patent US20260234738A1 (Regeneron, published 2026) one finds IC50 data, which are given here for 25 molecules.

Changes are numbered by the printed parent chain. Values joined by “and” are separate entries in the source; they are usually repeats but may differ in a detail not shown here. Equal entries are not always repeated.

For the assay, the target named is SARS-COV-2 Spike protein receptor binding domain (amino acids Arg319-Phe541) expressed with the Fc p (SARS-CoV-2).

B1: mAb10923 (antibody, V domains shown)
VH: QVQLVQSGAEVKKPGASVKVSCKASGYTFINYYIHWVRQAPGQGLEWMGWINPNSGGTNYAQKFQGRVTMTRDTSISTAYMELSRLRSDDTAVYYCAIITIFGVVTWFDPWGQGTLVTVSS
VL: not shown
As usually defined, the IC50 is the concentration needed to halve the response being measured. The low end stands for inhibition by little substance, the high end for a need for much substance. Turning to B1, the concentration for half-maximal inhibition (IC50) was 0.149 nM and 0.184 nM.

B2: mAb10971 (antibody, V domains shown)
VH: EVQLVESGGGLIQPGGSLRLSCAASGVTVSSNYMSWVRQAPGKGLEWVSVIYSGGSTFYSDSVKGRFSISRDNSKNTLYLQMNSLRAEDTAVYYCARDLYYYGMDVWGQGTTVTVSS
VL: DIQLTQSPSFLSASVGDRVTITCRASQGISTYLAWYQQKPGKAPKLLIYAASTLQSGVPSRFSGSGSGTEFTLTISSLQPEDFATYYCQQLDSYPGLTFGGGTKVEIKR
In the case of B2, the 50% inhibitory concentration (IC50) stood at 0.149 nM.

B3: mAb10921 (antibody, V domains shown)
VH: EVQLVESGGGLVQPGGSLRLSCAASGITVSSNYMSWVRQAPGKGLEWVSVIYSGGSTFYADSVKGRFTISRHNSKNTLYLQMNSLRAEDTAVYYCARERNFDAFDIWGQGTMVTVSS
VL: DIQMTQSPSSVSASVGDRVTITCRASQGISSWLAWYQQKPGKAPKLLIYAASSLQSGVPSRFSGSGSGTDFTLTISSLQPEDFATYYCQQANSFPLFTFGPGTKVDIKR
In the case of B3, the half-inhibitory concentration (IC50) is 0.433 nM and 0.507 nM.

B4: mAb10984 (antibody, V domains shown)
VH: EVQLVESGGGLVQPGGSLRLSCAASGLTVNRNYMSWVRQAPGKGLEWVSLIYSGGSTYYADSVKGRFTISRDNSKNTLYLQMNSLRLEDTAVYYCARGELGIPYGMDVWGQGTTVTVSS
VL: QSVLTQPPSVSAAPGQKVTISCSGSSSNIGNNYVSWYQQLPGTAPKLLIYDNNKRPSGIPDRFSGSKSGTSATLGITGLQTGDEADYYCGTWDSSLSAGVFGGGTKLTVLG
Turning to B4, the concentration for half-maximal inhibition (IC50) was determined as 0.0775 nM.

B5: mAb10982 (antibody, V domains shown)
VH: EVQLVESGGGLVQPGGSLRLSCAASGLTVSSNYMSWVRQAPGKGLEWVSVIYSGGTTYYADSVKGRFTISRHNSKNTLSLQMNSLRAEDTAVYYCARGEGANYYGMDVWGQGTTVTVSS
VL: QSVLTQPPSVSGAPGQRVTISCTGSSSNIGTGYDVHWYQQLPGTAPKLLIYGNSNRPSGVPDRFSGSKSGTSASLAITGLQAEDEADYYCQSYDSSLSGYVVFGGGTKLTVLG
Consider B5, for which the half-maximal inhibitory concentration (IC50) was 0.116 nM.

B6: mAb10936 (antibody, V domains shown)
VH: QVQLVESGGGVVQPGRSLRLSCAASGFTFRNYGMHWVRQAPGKGLEWVSVIWYDGSNRYYADSVKGRFTISRDTSKNTLYLQMNSLRAEDTAVYYCARDPPITGTTGGDAFDIWGQGTMVTVSS
VL: not shown
B6: the half-maximal inhibitory concentration (IC50) is 0.0875 nM and 0.071 nM.

B7: mAb10914 (antibody, V domains shown)
VH: EVQLVESGGGLVQPGGSLRLSCAASGLIVSRNYMIWVRQAPGKGLEWVSVIYSGGSTFYADSVKGRFTISRHNSKNTLYLQMNSLRAEDTAVYYCARDLGTGGMDVWGQGTTVTVSS
VL: DIQLTQSPSFLSASVGDRVTITCWASQGISSYLAWYQQKPGKAPKLLIYAASTLQSGVPSRFSGSGSGTEFTLTISSLQPEDFATYYCQQLNSYPLTFGGGTKVEIKR
Molecule B7 showed an IC50 of 0.98 nM.

B8: mAb10956 (antibody, V domains shown)
VH: B2 VH with I12V, V27L, S60A, S68T, Y100I, Y101K
VL: not shown
B8 displayed a half-inhibitory concentration (IC50) of 0.185 nM.

B9: mAb10957 (antibody, V domains shown)
VH: B2 VH with I12V, S60A, S68T, Y79F, A87I, Y100G, Y101P
VL: B2 VL with T31S, E70Q, T72I, D92N, L97F, G101P, E106D
In turn, B9 yielded an IC50 of 0.169 nM. This IC50 and that of the molecule before are within 1.5-fold of each other.

B10: mAb10932 (antibody, V domains shown)
VH: EVQLVESGGGLVQSGGSLRLSCAASGLTVSSNYMSWVRQAPGKGLEWVSVIYSGGSTFYSDSVKGRFTISRHNSKNTLYLQMNSLRAEDTAVYYCARARGDAFDIWGQGTMVTVSS
VL: not shown
For B10, the IC50 amounted to 0.373 nM.

B11: mAb10915 (antibody, V domains shown)
VH: EVQLVESGGGLVQPGGSLRLSCAASGFTVSSNYMNWVRQAPGKGLEWVSVIYSGGSTFYADSVKGRFTISRHNSKNTLYLQMNSLRPEDTAVYYCARDLGGYFDYWGQGTLVTVSS
VL: not shown
B11 came in with an IC50 of 0.321 nM.

B12: mAb10920 (antibody, V domains shown)
VH: QVQLVESGGGVVQPGRSLRLSCAASGFTFSYYGMHWVRQAPGKGLEWVAVIWYDGSNKFYADSVKGRFTISRDNSKNTLYLQMNSLRAEDTAVYYCAAARPGYYYGMDVWGQGTTVTVSS
VL: DIQMTQSPSSLSASVGDRVTITCRASQGISNYLAWFQQKPGKAPNSLIYAASSLQRGVPSKFSGSGSGTDFTLTISSLQPEDFATYYCQQYNSYPRTFGQGTKVEIKR
In the case of B12, the IC50 is 0.338 nM and 0.139 nM.

B13: mAb10930 (antibody, V domains shown)
VH: EVQLVESGGGLVQPGRSLRLSCAASGFTFDDYAMYWVRQAPGKGLEWVSGISWNSGSIGYADSVKGRFTISRDNAKNSLYLQMNSLRAADTALYYCAKDKDWNSRGYYYYGMDVWGQGTTVTVSS
VL: not shown
B13 yielded a 50% inhibitory concentration (IC50) of 0.282 nM.

B14: mAb10939 (antibody, V domains shown)
VH: EVQLVESGGGLVQPGGSLRLSCAASGLTVSSNYMNWVRQVPGKGLEWVSVIYSGGSKFYVDSVKGRFTISRHNSKNTLYLQMNSLRPEDTAVYYCTRDAQYYGMDVWGQGTTVTVSS
VL: DIQMTQSPSSLSASVGDRVTITCRASQSISTYLHWYQQKPGEAPKLLIYAASSLQSGVPSRFSGSGSGTDFTLTISSLQPEDFATYYCQQSYSTPPEIFGQGTKLEIKR
B14: the IC50 was 0.175 nM and 0.263 nM.

B15: mAb10964 (antibody, V domains shown)
VH: QVQLQESGPGLVKPSETLSLTCTVSGGSINNYYWIWIRQPPGKGLEWIGYIYHSGSTNYNPSLKSRVTISVDTSKNQFSLKVSSVTAADTAVYYCANMVRGVYEDDYWGQGTLVTVSS
VL: DIQMTQSPSSLSASVGDRVTITCRASQSISNYLNWYQQKPGKAPKLLIFAASSLRSGVPSRFSGSGSGTDFTLTISSLHPEDFATYYCQQNYNTPLTFGPGTKVDIKR
For the molecule B15, the half-maximal inhibitory concentration (IC50) is 0.0683 nM and 0.0625 nM.

B16: mAb10966 (antibody, V domains shown)
VH: EVQLVESGGGLVQPGGSLRLSCAASGLTVSSNYMSWVRQAPGKGLEWVSVIYSGGSTFYADSVKGRFTISRDNSKNTLYLQMNSLRPEDTAVYYCAREGRIAATGYGMDVWGQGTTVTVSS
VL: not shown
B16 returned a half-inhibitory concentration (IC50) of 0.16 nM. That is a sub-nanomolar value.

B17: mAb10934 (antibody, V domains shown)
VH: not shown
VL: DIQMTQSPSSLSASVGDRVTITCQASQDIWNYINWYQQKPGKAPKLLIYDASNLKTGVPSRFSGSGSGTDFTFTISSLQPEDIATYYCQQHDDLPPTFGQGTKVEIKR
Regarding B17, the IC50 is 0.066 nM and 0.0597 nM.

B18: mAb10954 (antibody, V domains shown)
VH: EVQLVESGGGLVQPGGSLRLSCAASGITVSSNYMSWVRQAPGKGLEWVSLIYSGGSTYYADSVKGRFTISRDNSKNTLYLQMNSLRVEDTAVYYCARDHGMAAAGYNYWGQGTLVTVSS
VL: B17 VL with W30N, N31K, I33L, K55E, S76N, I83F, Y87F, H91Y, D93N, T97A
Turning to B18, the half-maximal inhibitory concentration (IC50) came out at 0.0711 nM.

B19: mAb10955 (antibody, V domains shown)
VH: EVQLVESGGGLVQPGGSLRVSCAASGFTVSRNYMSWVRQAPGKGLEWVSVIYSGGSTFYADSVKGRFTISRDNSKNTLYLQMNSLRAEDTAIYYCARYIPRFDPWGQGTLVTVSS
VL: B17 VL with W30S, I33L, Y36F, K42R, K55E, H91Y, D93N, P96I, K103R, V104L
Regarding B19, the IC50 came to 0.141 nM.

B20: mAb10935 (antibody, V domains shown)
VH: EVQLVESGGGLVQPGGSLRLSCAASGFTVSSNYMSWVRQAPGKGLEWVSLIYSGGSTYYADSVKGRFTISRHNSKNTLYLQMNSLRSEDTAVYYCARVPLGDYYYGMDVWGQGTTVTVSS
VL: B17 VL with W30N, N31K, I33L, K55E, H91S, D93N, P96L, Q100G
Turning to B20, the concentration for half-maximal inhibition (IC50) was 0.102 nM and 0.0694 nM.

B21: mAb10967 (antibody, V domains shown)
VH: EVQLVESGGGLVQPGGSLRLSCAASGFTVSSNYMSWVRQAPGKGLEWVSVIYPGGSTFYADSVKGRFTISRDNSKNTLYLQMNSLRAEDTAVYYCARDQRDFAWGQGTLVTVSS
VL: B17 VL with W30S, I33L, K55E, S77G, H91Y, D93N, K103R, V104L
Regarding B21, the IC50 was 0.28 nM.

B22: mAb10938 (antibody, V domains shown)
VH: EVQLVESGGGLVQPGGSLRLSCAVSGFTVSSNYMSWVRQAPGKGLEWVSLIYSGGSTFYADSVKGRFTISRHNSKNTLYLQMNSLRAEDTAVYYCAREGGYSYDYNYWGQGTLVTVSS
VL: B17 VL with W30R, I33L, K55E, S65I, H91Y, D93N, P96I, K103R, V104L
On to B22, for which the IC50 stood at 0.275 nM.

B23: mAb10913 (antibody, V domains shown)
VH: EVQLVESGGGLVQPGGSLRLSCAASGFTFRNYEMNWVRQAPGKGLEWVSYITSSGSTMYYADSVKGRFTISRDNAKNSLYLQMNSLRAEDTAVYYCARDGFYYYYAMDVWGQGTTVTVSS
VL: QSVLTQPPSVSAAPGQKVTISCSGSSSNIGNNYVSWYQQLPGTAPKLLIYDNNKRPSGIPDRFSGSKSGTSATLGITGLQTGDEADYYCGTWDSSLSVGRVFGTGTKVTVLG
As for B23, the IC50 came out at 0.217 nM.

B24: mAb10937 (antibody, V domains shown)
VH: QITLKESGPTLVKPTQTLTLTCTFSGFSLSTNVVGVGWIRQPPGKALEWLALIYWNDDKRYSPSLKSRLTITKDTSKNQVVLTMTNMDPVDTATYYCAHGPTGDYFDYWGQGTLVTVSS
VL: not shown
B24 yielded an IC50 of 0.0649 nM.

B25: mAb10965 (antibody, V domains shown)
VH: EVQLVESGGGLIQPGGSLRLSCAASVFTVSYNYMSWVRQAPGKGLEWVSVIYSGGSTYYADSVKGRFTISRDNSKNTLYLQMNSLRAEDTAVYYCARALPGWGGSFEYFDYWGQGTLVTVSS
VL: not shown
The molecule B25 showed an IC50 of 0.213 nM.
